# Patent US20250034594A1, “RNA-GUIDED GENOME RECOMBINEERING AT KILOBASE SCALE” (THE BOARD OF TRUSTEES OF THE LELAND STANFORD JUNIOR …, priority 2021, published 2025)
# Read-outs that look alike come from different tables or passages of the source.
# B1: Homolog_T1: RecT, Pantoea stewartii; SEQ ID NO: 115 (protein, listed as Pantoea stewartii)
# chain: MSNQPPIASADLQKANTGKQVANKTPEQTLVGFMNQPAMKSQLAAALPRHMTADRMIRIVTTEIRKTPALATCDQSSFIGAVVQCSQLGLEPGSALGHAYLLPFGNGRSKSGQSNVQLIIGYRGMIDLARRSGQIVSLSARVVRADDEFSFEYGLDENLIHRPGENEDAPITHVYAVARLKDGGTQFEVMTVKQIEKVKAQSKASSNGPWVTHWEEMAKKTVIRRLFKYLPVSIEMQKAVILDEKAESDVDQDNASVLSAEYSVLDGSSEE
# B2: Homolog_E1: RecE, Pantoea stewartii; SEQ ID NO: 116 (protein, listed as Pantoea stewartii)
# chain: MQPGVYYDISNEEYHAGPGISKSQLDDIAVSPAIFQWRKSAPVDDEKTAALDLGTALHCLLLEPDEFSKRFMIGPEVNRRTNAGKQKEQDFLDMCEQQGITPITHDDNRKLRLMRDSAFAHPVARWMLETEGKAEASIYWNDRDTQILSRCRPDKLITEFSWCVDVKSTADIGKFQKDFYSYRYHVQDAFYSDGYEAQFCEVPTFAFLVVSSSIDCGRYPVQVFIMDQQAKDAGRAEYKRNLTTYAECQARNEWPGIATLSLPYWAKEIRNV
# B3: SSAP_15: SEQ ID NO: 184 (protein)
# chain: AKNELAKGSYLTDLQKLDGNTLRDFVDPKHQASPQELQALLAIVKGRNLNPFTKEVYFIKYGSAPAQIVVSKEAIMKRAEENPDFDGFEAGIVVETKDGAIERLTGTIVPKSATLRGGWCKVYRKDRSHAIEADADFAYYTTSKNLWQKMPALMIRKVAIVSAFREAFSESVGGLYTADEMQRETQAEVRARKMKEAYEEKLYLLTQMEAKSYKKTKSKNENEAKKTKEAEAIETVEEPTQDGNLEW
# B4: SSAP_198: SEQ ID NO: 367; Streptomyces sp. ms191 (protein, listed as Streptomyces sp.)
# chain: VEHYKADLAQVMPSHVKPDTFIRLAVGVLRRDRNLAQAAQNNPAALMGALMDAAQLGLTPGTEQFYLVPRKKAGRLEVQGIRGYQGEIELIYRAGAVSSVIVEVVRQADTFRYSPGRDERPEHEIDWDAEDRGPLRLVYAYAVMKDGATSKVVVLNRAQVMKAKAMSQGSDSAYSPWQKHEEAMWMKTAAHRLTKWVPTSAEYMREQLRAAAEVAAEHRPTPVAAAPGMPSVPGEDEAIEAEFVDEDEVA
# B5: SSAP_199: SEQ ID NO: 368; uncultured Mediterranean phage uvMED (protein)
# chain: TSSITPLVAMQGTLEKMADKFTEALPRQMDVNKFISVAKLTLNKNPRLLQADKTSLMQTFMKAAQDGLYLDGKEAAAVQYGQSVQYIPMVEGIIKVLHNSGLIKTISAEVVYENDFFDYELGTAPKITHKPLIVGDRGKPMCVYAVAITTNDGEYYEVMNMDQINQCRQVSKASSSPHSPWVKWFDQMAKKTVIHRIAKRLPKNDAINSVVTVDDEPNFQQAVNVTPSEPKDSLSRLRDSIGMEGKDVEQAANDLLEKYNKEAREE
# modifications: uncultured Mediterranean phage uvMED
# B6: Homolog_T2: RecT, Pantoea brenneri; SEQ ID NO: 117 (protein, listed as Pantoea brenneri)
# chain: MSNQPPIASADLQKTQQSKQVANKTPEQTLVGFMNQPAMKSQLAAALPRHMTADRMIRIVTTEIRKTPQLAQCDQSSFIGAVVQCSQLGLEPGSALGHAYLLPFGNGRSKSGQSNVQLIIGYRGMIDLARRSGQIVSLSARVVRADDEFSFEYGLDENLVHRPGENEDAPITHVYAVARLKDGGTQFEVMTVKQVEKVKAQSKASSNGPWVTHWEEMAKKTVIRRLFKYLPVSIEMQKAVVLDEKAESDVDQDNASVLSAEYSVLESGDEATN
# B7: SSAP_309: SEQ ID NO: 478; Paenibacillus sp. FSL R7-0333 (protein, listed as Paenibacillus sp.)
# chain: TVAIELQVQETLDRILDSKHDALPSDFNKKRFSENCKAYVADEKDLHKYSPEEIAANLFKGAVLGLDFLAKECHLISGGVELKFQTDYKGEMKLTKKYSVRPLLDVYAKNVREGDEFREEVIEGRPVIHFAPLPFNASSIIGSFAVALFQDGGMVYESIPAGEIEEIRKNYGKSLGDAWDKSQGEMYKRTVLRRLCKTIETDFDAEQRLIYDAGGAFEFTKQPARSRQQSPFNPPEESEVTQDDRVAETDQG
# B8: SSAP_194: SEQ ID NO: 363; Streptomyces sp. CS014 (protein, listed as Streptomyces sp.)
# chain: TENTVTAAVAVRDTGPAAQIEAYRDEYAALVPSHINADQWVRLAVGAIRGNEDLTNAARTDIGVFLRELKTAARLGLEPGTEQFYLTPRKSKAHRGQKIIKGIVGYQGIIELIYRAGAVSSVIVESVRANDTFRYVIGRDERPVHEIDWFGGDRGDLVGVYAYATMKDGATSKVVVLNHAQVMQIRAKSDSKHSEYSPWNTNPESMWLKSAVRQLMKWVPTSAEYMREQLRAQAEVAAEQPPAADLPPMPSVELNDEDEAVDAELVDEEA
# B9: SSAP_36: SEQ ID NO: 205 (protein)
# chain: SSIAAAAESAEVTPASIINKYRDDIATVLPPKLRERIDRWIRLAIGAVNSNPELISRVRADQGASMMQALMKCAALGHEPGSGLFHLVPKGSRIEGWEDYKGILQRIDRSGVYARTVIGVVYANDEYSYDQNVDERPRHVRATGDRGEPISSYAYAVYPSGAITTVAEATPEQIASSKSKARGADNAASPWRAPGAPMHRKVAVRLLEKHVATSAEDRREPISRSAANDVVIDATADYYQEP
# B10: SSAP_229: SEQ ID NO: 398; Amycolatopsis sp. CB00013 (protein, listed as Amycolatopsis sp.)
# chain: TTQTVTSAVAQQDSSPAALVRKYRTDFATVLPSHIKPETWLRIATGALRRSSQLAHAAEKNPTSLLVALLDAARKGLEPGTEQYYLVPRKTKRGPEVLGITGYQGEVELMYRAGAVSSVKVEGVREHDTFAYNPGEHDRPVHEINWRANRGDLVLAYAYAYAKMRDGATSNVSVLSADDIAVILSKAEGADSPFSPWQWNPKAMWLKSAAHQLAKWVPTSAERVWQPDGPPLEAPPATPVTLPTVEDVVDAEVVEDWPTTPADTADSEQ
# Assays:
# DYNLT1 locus = test: mKate knock-in gene-editing assay, RecE/RecT homologs, DYNLT1 locus; assay type: cell-based, human; settings: HEK293 cells, MCP fusion, n=3
# Protocol: (§1) Transfection HEK293T cells were seeded into 96-well plates (Corning) 12-24 hours prior to transfection at a density of 30,000 cells/well, and 250 ng of total DNA was transfected per well. HeLa and HepG2 cells were seeded into 48-well plates (Corning) one day prior to transfection at a density of 50,000 and 30,000 cells/well respectively, and 400 ng of total DNA was transfected per well. Transfections were performed with Lipofectamine 3000 (Life Technologies) following the manufacturer's instructions.
# (§2) Fluorescence-activated cell sorting (FACS) mKate knock-in efficiency was analyzed on a CytoFLEX flow cytometer (Beckman Coulter; Stanford Stem Cell FACS Core). 72 hours after transfection, cells were washed once with PBS and dissociated with TrypLE Express Enzyme (Thermo Fisher Scientific). Cell suspension was then transferred to a 96-well U-bottom plate (Thermo Fisher Scientific) and centrifuged at 300×G for 5 minutes. After removing the supernatant, pelleted cells were resuspended with 50 μl 4% FBS in PBS, and cells were sorted within 30 minutes of preparation.
# (§3) 15 different species of microbes having RecE/RecT proteins were selected for a screen of various RecE and RecT proteins across the microbial kingdom (Table 3). Each protein was codon-optimized and synthesized. As previously described for E. coli RecE/RecT based REDIT systems, each protein was fused via E-XTEN linker to the MCP protein with additional nuclear localization signal. mKate knock-in gene-editing assay was used to measure efficiencies at DYNLT1 locus (FIG. 26A, Table 4) and HSP90AA1 locus (FIG. 26B, Table 4).
# HSP90AA1 locus = test: mKate knock-in gene-editing assay, RecE/RecT homologs, HSP90AA1 locus; assay type: cell-based, human; settings: HEK293 cells, MCP fusion, n=3
# Protocol: as §1, §2, §3
# gene editing with dCas9 = test: Screen of 322 new SSAP proteins, gene editing activity with dCas9 (Table 5); assay type: cell-based; parameters: dCas9 with SSAP activity: scale not given here
# Method in brief: (§4)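 Sequence-mined SSAPs (n=322), synthesized; editing activity screened with Cas9 or dCas9.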
# [1] = tested on: endogenous genome targets (ACTB, HSP90AA1); test: Arrayed SSAP library screening, mKate knock-in assay (editing efficiency); assay type: cell-based; settings: average of HSP90 and ACTB, 3 days after transfection; for Editing Efficiency (Normalized, Average, two targets): fold over negative control (Flag_HA); for Editing Efficiency (Absolute, Average, two targets): percent of mKate knock-in
# Method in brief: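 Mammalian cells in duplicate were transfected with SSAP-encoding plasmids, with about 50% transfection efficiency. mKate knock-in positive cells and viability, by flow-cytometric live counts, were quantified three days later. RecT SSAP served as positive control and Flag-HA plasmid as negative control.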
# gene editing with Cas9 = test: Screen of 322 new SSAP proteins, gene editing activity with Cas9 (Table 5); assay type: cell-based; parameters: Cas9 with SSAP activity: scale not given here
# Method in brief: as §4
# [2] = tested on: gene editing with Cas9 and dCas9; test: Screen of 322 new SSAP proteins, activity across all experiments (Cas9 and dCas9, Table 5); assay type: cell-based; parameters: scale not given here
# Method in brief: as §4
# mammalian cells = test: Arrayed SSAP library screening, cell viability by live cell counts via flow cytometry; assay type: cell-based
# Method in brief: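 Each SSAP plasmid transfected in duplicate (~50% efficiency), with RecT SSAP as positive and Flag-HA as negative control. After three days, mKate-positive cells and viability by flow-cytometric live cell counts were quantified to gauge SSAP fitness effects.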
molecule,measurement,setting,value
B1,"Mean mKate+ (%), DYNLT1",DYNLT1 locus,11.7333%
same,"Mean mKate+ (%), HSP90AA1",HSP90AA1 locus,8.0733%
B2,"Mean mKate+ (%), DYNLT1",DYNLT1 locus,5.7333%
same,"Mean mKate+ (%), HSP90AA1",HSP90AA1 locus,7.6567%
B3,dCas9 with SSAP activity,gene editing with dCas9,−0.701
same,dCas9 with SSAP activity (normalized),gene editing with dCas9,−2.250
same,"Editing Efficiency (Normalized, Average, two targets)",[1],5.477
same,"Editing Efficiency (Absolute, Average, two targets)",[1],13.55
same,Cas9 with SSAP activity,gene editing with Cas9,−1.876
same,Cas9 with SSAP activity (normalized),gene editing with Cas9,−0.850
same,Activity across all experiments,[2],−1.288
same,"Cell Viability (Average, two targets)",mammalian cells,1.226
B4,dCas9 with SSAP activity,gene editing with dCas9,−2.578
same,dCas9 with SSAP activity (normalized),gene editing with dCas9,−0.849
same,"Editing Efficiency (Normalized, Average, two targets)",[1],5.524
same,"Editing Efficiency (Absolute, Average, two targets)",[1],13.65
same,Cas9 with SSAP activity,gene editing with Cas9,−4.061
same,Cas9 with SSAP activity (normalized),gene editing with Cas9,−0.571
same,Activity across all experiments,[2],−3.320
same,"Cell Viability (Average, two targets)",mammalian cells,0.4444
B5,dCas9 with SSAP activity,gene editing with dCas9,−2.480
same,dCas9 with SSAP activity (normalized),gene editing with dCas9,−0.364
same,"Editing Efficiency (Normalized, Average, two targets)",[1],4.602
same,"Editing Efficiency (Absolute, Average, two targets)",[1],11.4025
same,Cas9 with SSAP activity,gene editing with Cas9,−7.274
same,Cas9 with SSAP activity (normalized),gene editing with Cas9,−1.400
same,Activity across all experiments,[2],−4.877
same,"Cell Viability (Average, two targets)","mammalian cells; live cell counts via flow cytometry, average of HSP90 and ACTB",0.5186
B6,"Mean mKate+ (%), DYNLT1",DYNLT1 locus,12.0000%
same,"Mean mKate+ (%), HSP90AA1",HSP90AA1 locus,6.9233%
B7,dCas9 with SSAP activity,gene editing with dCas9,−9.420
same,dCas9 with SSAP activity (normalized),gene editing with dCas9,−2.412
same,"Editing Efficiency (Normalized, Average, two targets)",[1],3.992
same,"Editing Efficiency (Absolute, Average, two targets)",[1],9.885
same,Cas9 with SSAP activity,gene editing with Cas9,−3.975
same,Cas9 with SSAP activity (normalized),gene editing with Cas9,−1.807
same,Activity across all experiments,[2],−6.697
same,"Cell Viability (Average, two targets)",mammalian cells,0.9224
B8,dCas9 with SSAP activity,gene editing with dCas9,−8.790
same,"Editing Efficiency (Normalized, Average, two targets)",[1],4.924
same,"Editing Efficiency (Absolute, Average, two targets)",[1],12.175
same,Cas9 with SSAP activity,gene editing with Cas9,2.727
same,Cas9 with SSAP activity (normalized),gene editing with Cas9,3.516
same,Activity across all experiments,[2],−3.031
same,"Cell Viability (Average, two targets)",mammalian cells,1.139
B9,dCas9 with SSAP activity,gene editing with dCas9,−8.909
same,dCas9 with SSAP activity (normalized),gene editing with dCas9,−1.787
same,"Editing Efficiency (Normalized, Average, two targets)",[1],6.383
same,"Editing Efficiency (Absolute, Average, two targets)",[1],15.8
same,Cas9 with SSAP activity,gene editing with Cas9,−4.118
same,Cas9 with SSAP activity (normalized),gene editing with Cas9,−0.619
same,Activity across all experiments,[2],−6.514
same,"Cell Viability (Average, two targets)",mammalian cells,0.9418
B10,dCas9 with SSAP activity,gene editing with dCas9,−9.275
same,"Editing Efficiency (Normalized, Average, two targets)",[1],3.971
same,"Editing Efficiency (Absolute, Average, two targets)",[1],9.8525
same,Cas9 with SSAP activity,gene editing with Cas9,−2.969
same,Cas9 with SSAP activity (normalized),gene editing with Cas9,−0.509
same,Activity across all experiments,[2],−6.122
same,"Cell Viability (Average, two targets)",mammalian cells,0.8776
